Values quoted from earlier work as cited in publication PMC8031367.

Molecular target: Cys403 (UniProt position 403, RPVIHCRAGVG)
Experiment: chemical modification

Substance: YopH (Yersinia protein tyrosine phosphatase) (Yersinia pestis (as stated for YopH in this article; the title of the cited source, ref 59, says only 'Yersinia'))
- pKa: 4.67
